Reference: the supplement of paper PMC9170038

Tested on: MS2 coat protein
Experiment: apparent KD of MS2 coat protein; designed switch direction (-1 OFF switch, 1 ON switch): 1; higher = weaker reporter binding
Outline: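 Transcription of designed RNA switches on Illumina chips was done by stalled E. coli RNA polymerase. SNAP-549-labelled MS2 coat protein was then titrated in doubling steps from 0.7 or 1.5 nM to 3 µM, with steps of 0.8–1.5 h at the lowest and 10–20 min at the highest concentration. The per-design median over clusters of curve-fitted normalised fluorescence is reported as apparent KD.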

[1] = input ligand: microRNA oligo, concentration not stated
[2] = Eterna round: R95, input ligand: FMN 200 uM
[3] = Eterna round: R95, input ligand: microRNA oligo, concentration not stated
[4] = Eterna round: R95, input ligand: none

Row | Sequence | apparent KD of MS2 coat protein (input ligand: FMN 200 uM) [µM] | apparent KD of MS2 coat protein [1] [µM] | apparent KD of MS2 coat protein (input ligand: none) [µM] | apparent KD of MS2 coat protein [2] [µM] | apparent KD of MS2 coat protein [3] [µM] | apparent KD of MS2 coat protein [4] [µM]
1 | GUUACAUGAGGAUCACCCAUGUAUGUGUGGGAGUAAGUGUCUUAGGAUAUCUAGUAUUUAAUUUGAGAGAAGGAAGAUUGUUGU [JMF's solution 70] (Eterna round: R96, puzzle: Same State NG 3) | 0.138 | 0.0839 | 0.147 |  |  | 
2 | GUUACAUGAGGAUCACCCAUGUAUGUGUGGGAGUAAGUGUCUUAGGAUAUCUAGUAUUUUAUUUAAGAGAAGGAAGAUUGUUGU [JMF's solution 59] (Eterna round: R96, puzzle: Same State NG 3) | 0.13 | 0.0937 | 0.112 |  |  | 
3 | GUUACAUGAGGAUCACCCAUGUGUGUGUGGGAGUGAGUGGCUUAGGAUAUCUAUGAUUUUAGUUAAGAGAAGGGAGAUUGUUGU [SS-NG3-LRO05] (Eterna round: R96, puzzle: Same State NG 3) | 0.554 | 0.276 | 0.328 |  |  | 
4 | GUUAUACAUGAGGAUCACCCAUGUCAAUGUAGUCGAGGAUAUGGGCAGCUAUGAGGCGUACUAGAAGGCGAGAAGU [Mat - Same State 1 - Mod of JL - D15] (puzzle: Same State 1) |  |  |  | 0.125 | 0.268 | 0.437
5 | UAAAAACAUGAGGAUCACCCAUGUGAAAAUAUGGGAGGAUAUACAAAGACGAGAGUCAAAGUAGAAGGCCUAAAAU [Mat - Same State 1 - Eli mod - D88] (Eterna round: R96, puzzle: Same State 1) | 0.0219 | 0.0683 | 0.0866 |  |  | 
6 | UAACAGUACAAUUUAGAUCUACAUGAGGAUCACCCAUGUACUGAGGAUAUCAGCUCGUUUAGAGCUGAGAAGGCAGAAGAACUA [SSNG3/11-A3] (Eterna round: R96, puzzle: Same State NG 3) | 0.0397 | 0.154 | 0.218 |  |  | 
7 | UACAAUCUAUCUCAGGAUAUCAUGUCAAAGACAUGAGGAUCACCCAUGUACCAGGAAACUGGUUAUGAGAAGGGAGAUAGAUUGA [Mat - Same State 2 - Mod - D25] (puzzle: Same State 2) |  |  |  | 0.119 | 0.0591 | 0.39
8 | UACAAUCUAUCUCAGGAUAUCAUGUCAAAGACAUGAGGAUCACCCAUGUACCAGGAAACUGGUUAUGAGAAGGGAGAUAGAUUGU [Mat - Same State 2 - Mod - D24] (puzzle: Same State 2) |  |  |  | 0.136 | 0.0354 | 0.0779
9 | UACAAUCUAUCUGAGGAUAUCAUGAAUUAAACAUGAGGAUCACCCAUGUGCAGGAAAACUGCAUAUGAGAAGGCAGAUAGAUUGU [salish99_ss2_r3_060] (puzzle: Same State 2) |  |  |  | 0.0529 | 0.00245 | 0.804
10 | UACCAACAUAUAGAACAAGCGUGCUCGUCACAUGAGGAUCACCCAUGUCUAAACGCUGUACCUACAUCCUCAGCGCC [Eddiso] (puzzle: Sensor for hsa-mir-208a) |  |  |  | 0.0233 | 0.0246 | 0.0228
11 | UACCGCGCAGAUGCGCAACAUGAGGAUCACCCAUGUGGCACACAGGAUAUCCUGAACAGCUAUUAGGAGAAGGGUGAAGGCCUC [Sotetelequ] (Eterna round: R96, puzzle: Same State NG 3) | 0.128 | 0.0753 | 0.0783 |  |  | 
12 | UAGAAACAUGAGGAUCACCCAUGUGGGUUAAACACAGGAUAUCACGCCAAAAGAAAAGCGUGAGAAGGGUGACCGA [Xeusisus] (Eterna round: R96, puzzle: Same State 1) | 0.254 | 0.696 | 0.107 |  |  | 
13 | UAGAAACAUGAGGAUCACCCAUGUGGGUUAAACACAGGAUAUCACGCCAAAAGAAAAGCGUGAGAAGGGUGACCGA [Xeusisus] (puzzle: Same State 1) |  |  |  | 0.166 | 0.0712 | 0.161
14 | UAGAGAGGAAGCGAGGAUAUCGUGGGAGGGACAUGAGGAUCACCCAUGUAGGAUGUUGAGAGGAACGAGAAGGCGCAGGAAAGAA [JR_SS2_Sub075] (puzzle: Same State 2) |  |  |  | 0.0671 | 0.0781 | 0.11
15 | UAGAGAGGAAGCGAGGAUAUCGUGUGAGGAACAUGAGGAUCACCCAUGUGUGAUGUUGAGAGAGACGAGAAGGCGCAGGAGAUUA [JR_SS2_Sub083] (puzzle: Same State 2) |  |  |  | 0.0875 | 0.15 | 0.14
16 | UAGUGCAUUAGAGGAUAUUCUUACGACACGAGUAAGACAUGAGGAUCACCCAUGUCGUGGCAUGGGAAGAAGGCUGAUGUGCUA [Omei SS(NG)2 Bv7] (Eterna round: R96, puzzle: Same State NG 2) | 0.0144 | 0.0111 | 0.0347 |  |  | 
17 | UAGUGCAUUAGAGGAUAUUCUUACGACACGAGUAAGACAUGAGGAUCACCCAUGUUGUGGCAUGGGAAGAAGGCUGAUGUGCUA [Omei SS(NG)2 Bv9] (Eterna round: R96, puzzle: Same State NG 2) |  | 0.0453 |  |  |  | 
18 | UAUAAACAUGAGGAUCACCCAUGUAAUAAUAUGGGAGGAUAUCAGAUUUAAUUUAAUUUAUGAGAAGGCCUAAUAU [Mat - Same State 1 - Mod of Eli - D66] (Eterna round: R96, puzzle: Same State 1) |  | 0.427 |  |  |  | 
19 | UAUAAACAUGAGGAUCACCCAUGUAAUAAUAUGGGAGGAUAUCAGAUUUAAUUUAAUUUAUGAGAAGGCCUAAUAU [Mat - Same State 1 - Mod of Eli - D66] (puzzle: Same State 1) |  |  |  | 0.0343 | 0.491 | 0.825
20 | UAUGACUUACAAGGAUAUUAAUAACAUGAGGAUCACCCAUGUGGCUGUGAGAGUUAGAUAAGCUAUAAGAAGGUGUGUGUGUUU [JR_SSNG2_Sub094] (Eterna round: R96, puzzle: Same State NG 2) | 0.0627 | 0.133 | 0.173 |  |  | 
21 | UCAACUUUUUUUAGUGUGUUGCCAGGUUAACAUGAGGAUCACCCAUGUAAAGUAUAGUGGGAUUAAGUUCGUCUUAA [JR_SHM208A_Sub072] (puzzle: Sensor for hsa-mir-208a) |  |  |  | 0.0772 | 0.0836 | 0.0939
22 | UCAAGCGUUUGGCUCGUCUUAUGUUUUGUACAUGAGGAUCACCCAUGUUUUGUACGAUCCAGUUAGAUGGUAUUUUG [JR_SHM208A_Sub038] (puzzle: Sensor for hsa-mir-208a) |  |  |  | 0.0398 | 0.121 | 0.0546
23 | UCGAGCGUACUUGCAGACAUGAGGAUCACCCAUGUAAAUGGGAAGGAUAUGGUACCGUUUCGGUACCAGAAGGUCCUAAGUGUU [salish99_SSNG3_r04_303] (Eterna round: R96, puzzle: Same State NG 3) | 0.616 | 0.146 | 0.493 |  |  | 
24 | UCGAGCGUACUUGCAGACAUGAGGAUCACCCAUGUAAAUGGGAAGGAUAUGGUACCGUUUCGGUACCAGAAGGUCCUACGUGCU [salish99_SSNG3_r04_305] (Eterna round: R96, puzzle: Same State NG 3) | 0.325 | 0.0488 | 0.144 |  |  | 
25 | UCGGGCGUACUUGCUGACAUGAGGAUCACCCAUGUCCUUGCGCAGGAUAUGGUUCCGUUUCGGUUCCAGAAGGUCCUGGCUGCU [salish99_SSNG3_r04_319] (Eterna round: R96, puzzle: Same State NG 3) | 0.0305 | 0.0195 | 0.0332 |  |  | 
26 | UCGUCGACACAAAUUCGACAACAUGAGGAUCACCCAUGUCCACAGGAUAUCGGCAGCUUAUGCUCCGAGAAGGGUGGUUAGAUU [Beage Mod] (Eterna round: R96, puzzle: Same State NG 3) | 0.435 | 0.664 | 0.605 |  |  | 
27 | UCUAUUGUGGUAGGAUAUCUAGGAUAUGGGAAGAGCUAAGCUUGGAAGUCACUUCACCCAGAAGGAGAGAAGGACCACACACUU [pwkr ssNG2 2FMN + F9.8] (Eterna round: R96, puzzle: Same State NG 2) | 0.564 | 0.121 | 0.225 |  |  | 
28 | UCUUGGUUUUUGCUCGUUUUUUGUGUUGAACAUGAGGAUCACCCAUGUAUUGUACGAUCCAAUUUAAUAAUGGUCCG [JMF 60] (puzzle: Sensor for hsa-mir-208a) |  |  |  | 0.0426 | 0.0336 | 0.0502
